Measurements: article PMC3821034

Molecular target: Phenylalanine hydroxylase from Legionella pneumophila (Legionella pneumophila) (UniProt Q5ZS72)
Experiment: crystal structure

Substance: Phenylalanine hydroxylase from Legionella pneumophila (from UniProt Q5ZS72 1-272) (enzyme)
- stoichiometry N: 2
